Source: paper doi:10.1101/2022.05.31.494188

Molecular target: Recombinant envelope glycoprotein gp120 from HIV-1 (CM235) (HIV-1 (CM235))
Test: ELISA

Row | Substance | EC50
1 | Aglycosylated Avaren-Fc variant (AvFc^Δgly), N200Q (Fc fusion) | 0.061 nM
2 | Avaren-Fc produced in glycoengineered ΔXylT/ΔFucT N. benthamiana (AvFc^ΔXF) (Fc fusion) | 0.048 nM
3 | Avaren-Fc produced in wild-type N. benthamiana (AvFc^WT) (Fc fusion) | 0.051 nM
